Molecular target: p53 (purified recombinant) (UniProt P04637 1-393)
Experiment: EMSA

Chain of p53 (purified recombinant) (P04637 whole entry): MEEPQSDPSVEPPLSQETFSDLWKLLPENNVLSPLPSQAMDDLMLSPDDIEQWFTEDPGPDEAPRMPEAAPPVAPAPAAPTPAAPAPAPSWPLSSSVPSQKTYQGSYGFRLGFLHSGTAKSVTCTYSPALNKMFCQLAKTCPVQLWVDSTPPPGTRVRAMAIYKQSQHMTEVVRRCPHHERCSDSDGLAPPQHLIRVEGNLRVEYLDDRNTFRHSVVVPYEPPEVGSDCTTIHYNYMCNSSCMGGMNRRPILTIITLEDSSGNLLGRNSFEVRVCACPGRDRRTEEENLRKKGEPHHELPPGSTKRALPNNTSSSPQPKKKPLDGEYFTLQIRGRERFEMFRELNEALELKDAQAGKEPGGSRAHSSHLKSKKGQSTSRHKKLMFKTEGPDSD

B1: p21 promoter p53 consensus duplex (dsDNA)
DNA 1: TTGAACATGTCCCAACATGTTGA
DNA 2: TCAACATGTTGGGACATGTTCAA
- binding result: binds
